Measured values reported in US20130017541.

Experiments:
[1] = tested on: DpnI biotinylated (bDpnI); experiment: pulldown
[2] = tested on: anti-N6-methyladenine monoclonal antibody (best hybridoma) (Mus musculus); experiment: ELONA; conditions: N6-methyladenine at position 6 (printed as marked A) [6 (N6-methyladenine)]; nearly 40 fold discrimination
[3] = tested on: anti-N6-methyladenine mouse polyclonal antisera (Mus musculus); experiment: ELONA; conditions: N6-methyladenine at position 6 (printed as marked A) [6 (N6-methyladenine)]; oligo ELISA, antisera 1:10,000

E. coli genomic DNA was tested, and the binding signal ([1]; N6-methyladenine at GATC (dam), 10 ng E. coli DNA in 1 ug human DNA, at least 30% at pg input) was over 80 % recovered.
GCAGGATCAACAGTCACACT [N6mA oligo] gave a binding signal (fold preference over unmethylated oligo) [2] of 40 and a binding signal (fold preference over unmethylated oligo) [3] of over 10.
human genomic DNA was tested, and the binding signal ([1]; 1 ug human DNA, one wash, reduced to 1% with three washes) was 10 % recovered.
